The values that follow come from patent US20160137740A1.

This assay concerns the target KO_CRD4+linker (human OX40 aa 147 to 214 replaced with the mouse counterparts) (human; mouse). Nature of the assay: flow cytometry, transfected 293F cells, column KO_CRD4+linker.

KO_CRD4+linker (human OX40 aa 147 to 214 replaced with the mouse counterparts) (human; mouse), sequence (chain, as listed by the source limits assumed, form in doubt): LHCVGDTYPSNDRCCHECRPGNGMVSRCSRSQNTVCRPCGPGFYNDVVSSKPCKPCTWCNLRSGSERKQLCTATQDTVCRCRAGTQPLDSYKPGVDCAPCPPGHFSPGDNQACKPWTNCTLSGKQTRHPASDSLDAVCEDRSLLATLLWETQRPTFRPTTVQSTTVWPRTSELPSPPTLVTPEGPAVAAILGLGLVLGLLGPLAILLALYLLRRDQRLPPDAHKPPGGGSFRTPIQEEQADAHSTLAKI

B1: 9B12 (antibody, mouse IgG1, V domains shown)
VH: EVQLQESGPSLVKPSQTLSLTCSVTGDSFTSGYWNWIRKFPGNRLEYMGYISYNGITYHNPSLKSRISITRDTSKNHYYLQLNSVTTEDTATYFCARYRYDYDGGHAMDYWGQGTLVTVSS
VL: DIQMTQTTSSLSASLGDRVTISCRASQDISNYLNWYQQKPDGTVKLLIYYTSKLHSGVPSRFSGSGSRTDYSLTITDLDQEDIATYFCQQGSALPWTFGQGTKVEIKR
Consider B1, for which the percent of cells in the Alexa Fluor 488 gate (number printed over the gate) is 52.7.
